Experimental data from US20150366985A1.

Molecular target: protein A found on S. aureus (Staphylococcus aureus) (UniProt P02976)
Test: FACS, Alexa-488 labeled antibodies at 0.08-50 ug/mL on MRSA isolated from infected mouse kidneys; low level binding attributed by the filing to protein A

Sequence of protein A found on S. aureus (Staphylococcus aureus) (P02976 37-485): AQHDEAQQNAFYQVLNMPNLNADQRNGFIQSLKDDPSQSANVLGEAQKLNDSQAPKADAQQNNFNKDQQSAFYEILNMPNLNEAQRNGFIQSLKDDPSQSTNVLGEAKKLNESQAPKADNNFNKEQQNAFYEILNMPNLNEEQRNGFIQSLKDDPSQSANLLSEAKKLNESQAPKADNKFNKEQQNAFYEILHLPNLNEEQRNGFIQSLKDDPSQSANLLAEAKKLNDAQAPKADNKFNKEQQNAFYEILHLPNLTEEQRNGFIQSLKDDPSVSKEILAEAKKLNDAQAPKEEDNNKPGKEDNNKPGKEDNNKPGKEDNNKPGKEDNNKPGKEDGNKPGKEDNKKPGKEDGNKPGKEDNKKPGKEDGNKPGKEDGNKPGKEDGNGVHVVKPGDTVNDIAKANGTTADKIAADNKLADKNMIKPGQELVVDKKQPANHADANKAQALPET

gD antibody (negative control human IgG1 that does not recognize S. aureus)
fold lower binding than the S4497 antibody (fold lower than S4497 antibody): 30
